According to EP4620474A1:

Target: human receptor for C5a (human) (UniProt P21730)
Assay: cell-based or functional assay

Sequence of UniProt P21730 (P21730 whole entry): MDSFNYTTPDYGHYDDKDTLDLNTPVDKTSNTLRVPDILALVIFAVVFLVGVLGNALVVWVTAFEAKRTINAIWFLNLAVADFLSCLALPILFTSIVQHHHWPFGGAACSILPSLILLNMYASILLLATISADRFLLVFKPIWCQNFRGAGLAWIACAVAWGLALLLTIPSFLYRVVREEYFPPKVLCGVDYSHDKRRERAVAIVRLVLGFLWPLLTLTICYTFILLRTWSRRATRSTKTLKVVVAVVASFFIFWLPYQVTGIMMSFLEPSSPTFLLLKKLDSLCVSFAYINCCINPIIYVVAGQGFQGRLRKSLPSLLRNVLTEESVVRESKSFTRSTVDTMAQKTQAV

Row | half effective concentrations (EC50), chemotaxis (migration) of BA/F3/huC5aR cells | Substance
1 | 0.1 nM | recombinant human C5a (from UniProt P01031 678-751) (ligand)
2 | 0.3 nM | mouse C5a (from UniProt P06684 679-755) (ligand)
